Patent publication US12186374B2 (Sanofi-Aventis Deutschland GmbH, priority 2014, dated 2025)

System: patients with Type 2 diabetes mellitus (T2DM)
Assay: Treatment-emergent adverse events incl. serious, fatal, leading to discontinuation (Example 2)
[1] = PT ≥3% in any treatment group, Safety population

## Gly(A21)-Arg(B31)-Arg(B32)-human insulin [Insulin Glargine]
Example 2
  Diarrhea, % of patients: 4.3%
  Nausea, % of patients: 3.6%
  Nausea, number of patients: 17 patients
  Overall incidence of gastrointestinal adverse events: 12.6%
  Patients reporting treatment-emergent adverse events, %: 48.6%
  Patients reporting treatment-emergent adverse events, number: 227 patients
  Patients who withdrew from treatment due to TEAEs: 1.9%
  Patients with at least 1 TEAE leading to death: 3 patients
  Serious TEAEs, % of patients: 4.1%
  Serious TEAEs, number of patients: 19 patients
  Upper respiratory tract infection, % of patients: 4.9%
  Withdrawals caused by gastrointestinal adverse events: 0.2%
[1]
  TEAE: Back pain: 10 (2.1%) n (%)
  TEAE: Diarrhoea: 20 (4.3%) n (%)
  TEAE: Dizziness: 7 (1.5%) n (%)
  TEAE: Headache: 15 (3.2%) n (%)
  TEAE: Influenza: 11 (2.4%) n (%)
  TEAE: Nasopharyngitis: 25 (5.4%) n (%)
  TEAE: Nausea: 17 (3.6%) n (%)
  TEAE: Upper respiratory tract infection: 23 (4.9%) n (%)
  TEAE: Vomiting: 7 (1.5%) n (%)
PT, Safety population
  Serious TEAE: Acquired phimosis: 0 n (%)
  Serious TEAE: Acute kidney injury: 0 n (%)
  Serious TEAE: Acute myocardial infarction: 1 (0.2%) n (%)
  Serious TEAE: Acute pulmonary oedema: 1 (0.2%) n (%)
  Serious TEAE: Anaphylactic reaction: 0 n (%)
  Serious TEAE: Angioedema: 0 n (%)
  Serious TEAE: Bladder prolapse: 1 (0.2%) n (%)
  Serious TEAE: Bronchitis: 1 (0.2%) n (%)
  Serious TEAE: Calculus urinary: 1 (0.2%) n (%)
  Serious TEAE: Cardiac failure acute: 1 (0.2%) n (%)
  Serious TEAE: Cardiac failure chronic: 1 (0.2%) n (%)
  Serious TEAE: Cardiac failure congestive: 1 (0.2%) n (%)
  Serious TEAE: Cervical dysplasia: 0 n (%)
  Serious TEAE: Cholecystitis chronic: 0 n (%)
  Serious TEAE: Chronic obstructive pulmonary disease: 1 (0.2%) n (%)
  Serious TEAE: Comminuted fracture: 1 (0.2%) n (%)
  Serious TEAE: Coronary artery disease: 1 (0.2%) n (%)
  Serious TEAE: Costochondritis: 1 (0.2%) n (%)
  Serious TEAE: Death: 0 n (%)
  Serious TEAE: Diabetes mellitus inadequate control: 0 n (%)
  Serious TEAE: Dyspnoea: 1 (0.2%) n (%)
  Serious TEAE: Electrocardiogram ST-T segment abnormal: 0 n (%)
  Serious TEAE: Erysipelas: 0 n (%)
  Serious TEAE: Febrile infection: 0 n (%)
  Serious TEAE: Hydronephrosis: 1 (0.2%) n (%)
  Serious TEAE: Hypertension: 1 (0.2%) n (%)
  Serious TEAE: Lacunar infarction: 1 (0.2%) n (%)
  Serious TEAE: Lipase increased: 1 (0.2%) n (%)
  Serious TEAE: Lung cancer metastatic: 0 n (%)
  Serious TEAE: Lung neoplasm malignant: 0 n (%)
  Serious TEAE: Meningitis staphylococcal: 0 n (%)
  Serious TEAE: Metabolic acidosis: 0 n (%)
  Serious TEAE: Metastases to liver: 0 n (%)
  Serious TEAE: Metrorrhagia: 0 n (%)
  Serious TEAE: Myocardial infarction: 1 (0.2%) n (%)
  Serious TEAE: Non-cardiac chest pain: 1 (0.2%) n (%)
  Serious TEAE: Oesophagitis: 0 n (%)
  Serious TEAE: Palpitations: 0 n (%)
  Serious TEAE: Pancreatic carcinoma: 1 (0.2%) n (%)
  Serious TEAE: Pancytopenia: 1 (0.2%) n (%)
  Serious TEAE: Pneumonia: 1 (0.2%) n (%)
  Serious TEAE: Prostate cancer recurrent: 1 (0.2%) n (%)
  Serious TEAE: Pyelonephritis acute: 1 (0.2%) n (%)
  Serious TEAE: Radiculopathy: 0 n (%)
  Serious TEAE: Renal colic: 0 n (%)
  Serious TEAE: Respiratory failure: 0 n (%)
  Serious TEAE: Spinal osteoarthritis: 0 n (%)
  Serious TEAE: Squamous cell carcinoma of skin: 0 n (%)
  Serious TEAE: Squamous cell carcinoma of the oral cavity: 1 (0.2%) n (%)
  Serious TEAE: Tendon rupture: 0 n (%)
  Serious TEAE: Thyroid adenoma: 1 (0.2%) n (%)
  Serious TEAE: Toxicity to various agents: 0 n (%)
  Serious TEAE: Transient ischaemic attack: 0 n (%)
  Serious TEAE: Urinary tract infection: 0 n (%)
  Serious TEAE: Urosepsis: 1 (0.2%) n (%)
  Serious TEAE: Urticaria: 0 n (%)
  TEAE leading to death: Acute myocardial infarction: 1 (0.2%) n (%)
  TEAE leading to death: Acute pulmonary oedema: 1 (0.2%) n (%)
  TEAE leading to death: Cardiac failure acute: 1 (0.2%) n (%)
  TEAE leading to death: Cardiac failure congestive: 0 n (%)
  TEAE leading to death: Death: 0 n (%)
  TEAE leading to death: Lung cancer metastatic: 0 n (%)
  TEAE leading to death: Squamous cell carcinoma of the oral cavity: 1 (0.2%) n (%)
  TEAE leading to permanent treatment discontinuation: Abdominal distension: 0 n (%)
  TEAE leading to permanent treatment discontinuation: Abdominal pain: 0 n (%)
